Source: patent publication US20230357429A1 (JANUX THERAPEUTICS, published 2023)
Like-named read-outs stand apart in the source and are kept apart here. Where no end group is shown, it is not given here.

Experiments:
Assay in all cases: competition ELISA, peptide vs Fab binding to captured biotin-TROP2
[1] = biological target: T1, TBD-6 (LC I93A)
T1 construct: Fab; also called LC I93A mutant

[2] = biological target: T2, TBD-11 (HC R98A)
T2 construct: Fab; also called HC R98A mutant

[3] = biological target: T3, TBD-1 wt
T3 construct: Fab; the heavy chain entry is VH-CH1; also called wild-type anti-TROP2 Fab (hRS7); TROP2 Fab

[4] = biological target: T4, TBD-22 (HC D109A)
T4 construct: Fab; also called HC D109A mutant

[5] = biological target: T5, TBD-17 (HC S104A)
T5 construct: Fab; also called HC S104A mutant

[6] = biological target: T6, TBD-21 (HC F108A)
T6 construct: Fab; also called HC F108A mutant

[7] = biological target: T1, TBD-6 (LC I93A); remark: listed apart in the source
[8] = biological target: T2, TBD-11 (HC R98A); remark: listed apart in the source
[9] = biological target: T3, TBD-1 wt; remark: listed apart in the source
[10] = biological target: T4, TBD-22 (HC D109A); remark: listed apart in the source
[11] = biological target: T5, TBD-17 (HC S104A); remark: listed apart in the source
[12] = biological target: T6, TBD-21 (HC F108A); remark: listed apart in the source

In the case of IDFCAMYHWPICDT (cysteine pairing not given here; also: biotinylated, site not given here) [Peptide-42], the IC50 [1] is reported as 220 nM, the IC50 [2] is reported as 1210 nM and the IC50 [3] is reported as 300 nM. It also gave an IC50 [4] of 60 nM, an IC50 [5] of 590 nM and an IC50 [6] of 940 nM.

VDFCKLYNWPVCQT (cysteine pairing not given here; also: biotinylated, site not given here) [Peptide-5] gave an IC50 [7] of 1050 nM, an IC50 [8] of 7230 nM and an IC50 [9] of 1590 nM. It also gave an IC50 [10] of 100 nM, an IC50 [11] of 1790 nM and an IC50 [12] of 7160 nM.

SYLVCVKNVYCWTA (cysteine pairing not given here; also: biotinylated, site not given here) [Peptide-29] was tested, and the IC50 [7] was 800 nM, the IC50 [8] was 9170 nM and the IC50 [9] was 920 nM. For the same binder, the IC50 [10] was 33600 nM, the IC50 [11] was 1110 nM and the IC50 [12] was 1490 nM.

VDFCALYHWPICYQ (cysteine pairing not given here; also: biotinylated, site not given here) [Peptide-43] was tested, and the IC50 [1] was 440 nM, the IC50 [2] was 770 nM and the IC50 [3] was 300 nM. The IC50 [4] was 50 nM, the IC50 [5] was 560 nM and the IC50 [6] was 690 nM.

With IDFCAIYQWPVCRS (cysteine pairing not given here; also: biotinylated (site not given here)) [Peptide-10] the IC50 [7] was 620 nM, the IC50 [8] was 4040 nM and the IC50 [9] was 1220 nM. The IC50 [10] was 60 nM, the IC50 [11] was 1520 nM and the IC50 [12] was 2900 nM.

PDFCAVYRWPICYQ (cysteine pairing not given here; also: biotinylated (site not given here)) [Peptide-12] gave an IC50 [7] of 1460 nM, an IC50 [8] of 850 nM and an IC50 [9] of 460 nM. For the same binder, the IC50 [10] was 70 nM, the IC50 [11] was 2230 nM and the IC50 [12] was 2240 nM.

Work on VDFCELYRWPICNS (cysteine pairing not given here; also: biotinylated (site not given here)) [Peptide-13] yielded an IC50 [7] of 970 nM, an IC50 [8] of 2680 nM and an IC50 [9] of 1010 nM. For the same binder, the IC50 [10] was 200 nM, the IC50 [11] was 2990 nM and the IC50 [12] was 3200 nM.

LDFCKIYDWPICHL (cysteine pairing not given here; also: biotinylated (site not given here)) [Peptide-14] gave an IC50 [7] of 1540 nM, an IC50 [8] of 3420 nM and an IC50 [9] of 2190 nM. The IC50 [10] was 190 nM, the IC50 [11] was 5720 nM and the IC50 [12] was 6920 nM.

Work on IDFCLLYDWPICGR (cysteine pairing not given here; also: biotinylated (site not given here)) [Peptide-17] yielded an IC50 [7] of 760 nM, an IC50 [8] of 1950 nM and an IC50 [9] of 430 nM. It also gave an IC50 [10] of 70 nM, an IC50 [11] of 2070 nM and an IC50 [12] of 2940 nM.

Binder MDFCQIYDWPICRL (cysteine pairing not given here; also: biotinylated (site not given here)) [Peptide-18] has an IC50 [7] of 6110 nM, an IC50 [8] of 3960 nM and an IC50 [9] of 1270 nM. For the same binder, the IC50 [10] was 350 nM, the IC50 [11] was 7080 nM and the IC50 [12] was 7560 nM.

PDFCYMYGWPICDS (cysteine pairing not given here; also: biotinylated, site not given here) [Peptide-32] gave an IC50 [1] of 3290 nM, an IC50 [2] of 9930 nM and an IC50 [3] of 4940 nM. The IC50 [4] was 330 nM, the IC50 [5] was 9440 nM and the IC50 [6] was 13200 nM.

In the case of IDFCAVYKWPVCQV (cysteine pairing not given here; also: biotinylated, site not given here) [Peptide-62], the IC50 [1] is reported as 550 nM, the IC50 [2] is reported as 4870 nM and the IC50 [3] is reported as 1470 nM. For the same binder, the IC50 [4] was 80 nM, the IC50 [5] was 1420 nM and the IC50 [6] was 3010 nM.

For PDFCYMYNWPVCVT (cysteine pairing not given here; also: biotinylated, site not given here) [Peptide-33], the IC50 [1] was 2160 nM, the IC50 [2] was 18000 nM and the IC50 [3] was 5600 nM. It also gave an IC50 [4] of 330 nM, an IC50 [5] of 6010 nM and an IC50 [6] of 15700 nM.

EDFCYWYQWPICSD (cysteine pairing not given here; also: biotinylated, site not given here) [Peptide-35] showed an IC50 [1] of 3200 nM, an IC50 [2] of 21900 nM and an IC50 [3] of 4400 nM. The IC50 [4] was 870 nM, the IC50 [5] was 9400 nM and the IC50 [6] was 19200 nM.

VDFCYQYGWPICSR (cysteine pairing not given here; also: biotinylated, site not given here) [Peptide-36] gave an IC50 [1] of 3800 nM, an IC50 [2] of 19800 nM and an IC50 [3] of 5110 nM. For the same binder, the IC50 [4] was 1720 nM, the IC50 [5] was 14800 nM and the IC50 [6] was 19900 nM.

Binder VDFCYLYNWPVCSK (cysteine pairing not given here; also: biotinylated, site not given here) [Peptide-37] has an IC50 [1] of 2600 nM, an IC50 [2] of 16600 nM and an IC50 [3] of 6280 nM. It also gave an IC50 [4] of 370 nM, an IC50 [5] of 4080 nM and an IC50 [6] of 15500 nM.

With VDFCSIYHWPVCYV (cysteine pairing not given here; also: biotinylated, site not given here) [Peptide-38] the IC50 [1] was 520 nM, the IC50 [2] was 4420 nM and the IC50 [3] was 1630 nM. It also gave an IC50 [4] of 170 nM, an IC50 [5] of 2030 nM and an IC50 [6] of 3540 nM.

VDFCGLYHWPICYQVD (cysteine pairing not given here; also: biotinylated, site not given here) [Peptide-39] was tested, and the IC50 [1] was 670 nM, the IC50 [2] was 1640 nM and the IC50 [3] was 460 nM. It also gave an IC50 [4] of 140 nM, an IC50 [5] of 1690 nM and an IC50 [6] of 2230 nM.

In the case of VDFCGLYHWPICYQVY (cysteine pairing not given here; also: biotinylated, site not given here) [Peptide-41], the IC50 [1] is reported as 580 nM, the IC50 [2] is reported as 1510 nM and the IC50 [3] is reported as 640 nM. For the same binder, the IC50 [4] was 110 nM, the IC50 [5] was 1550 nM and the IC50 [6] was 1500 nM.

VDFCYLYSWPICTK (cysteine pairing not given here; also: biotinylated, site not given here) [Peptide-40] gave an IC50 [1] of 2280 nM, an IC50 [2] of 14600 nM and an IC50 [3] of 3630 nM. For the same binder, the IC50 [4] was 580 nM, the IC50 [5] was 7260 nM and the IC50 [6] was 10000 nM.
